According to US20040161821A1 (COLD SPRING HARBOR LABORATORY, published 2004):

How the values were obtained:
[1] = biological target: T1, chimeric receptor CSF-MET, P07333
T1 chain: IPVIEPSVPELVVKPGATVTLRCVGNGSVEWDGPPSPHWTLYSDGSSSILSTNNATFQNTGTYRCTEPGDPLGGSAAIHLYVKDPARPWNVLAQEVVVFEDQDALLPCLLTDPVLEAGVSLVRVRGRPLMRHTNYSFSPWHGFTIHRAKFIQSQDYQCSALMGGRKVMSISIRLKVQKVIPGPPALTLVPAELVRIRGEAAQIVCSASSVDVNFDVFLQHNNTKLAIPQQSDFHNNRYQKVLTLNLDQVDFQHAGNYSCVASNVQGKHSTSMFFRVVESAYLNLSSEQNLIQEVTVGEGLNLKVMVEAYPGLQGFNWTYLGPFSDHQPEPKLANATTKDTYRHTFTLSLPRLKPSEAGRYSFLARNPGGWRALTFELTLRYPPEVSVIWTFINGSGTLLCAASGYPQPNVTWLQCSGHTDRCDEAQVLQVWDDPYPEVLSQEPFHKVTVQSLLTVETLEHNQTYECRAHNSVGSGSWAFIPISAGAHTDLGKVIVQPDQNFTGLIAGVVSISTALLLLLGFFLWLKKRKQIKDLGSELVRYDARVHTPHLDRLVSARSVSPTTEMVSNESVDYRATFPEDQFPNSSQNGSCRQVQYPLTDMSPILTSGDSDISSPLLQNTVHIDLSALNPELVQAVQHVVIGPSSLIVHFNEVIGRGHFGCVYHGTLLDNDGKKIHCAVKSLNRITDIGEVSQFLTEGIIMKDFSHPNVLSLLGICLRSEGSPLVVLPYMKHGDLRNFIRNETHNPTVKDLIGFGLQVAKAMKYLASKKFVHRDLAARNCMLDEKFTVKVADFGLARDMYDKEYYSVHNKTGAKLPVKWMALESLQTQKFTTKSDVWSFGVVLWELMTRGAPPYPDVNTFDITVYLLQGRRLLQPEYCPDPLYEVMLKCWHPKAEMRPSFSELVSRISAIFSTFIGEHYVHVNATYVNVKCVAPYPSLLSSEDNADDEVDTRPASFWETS

E-cadherin = biological target: T2, E-cadherin (human, UniProt P12830 155-882); assay: amylose pull-down from pervanadate-treated T-47D lysate, anti-E-cadherin immunoblot
T2 construct: Endogenous protein in lysate of pervanadate-treated T-47D cells
T2 sequence (looked up): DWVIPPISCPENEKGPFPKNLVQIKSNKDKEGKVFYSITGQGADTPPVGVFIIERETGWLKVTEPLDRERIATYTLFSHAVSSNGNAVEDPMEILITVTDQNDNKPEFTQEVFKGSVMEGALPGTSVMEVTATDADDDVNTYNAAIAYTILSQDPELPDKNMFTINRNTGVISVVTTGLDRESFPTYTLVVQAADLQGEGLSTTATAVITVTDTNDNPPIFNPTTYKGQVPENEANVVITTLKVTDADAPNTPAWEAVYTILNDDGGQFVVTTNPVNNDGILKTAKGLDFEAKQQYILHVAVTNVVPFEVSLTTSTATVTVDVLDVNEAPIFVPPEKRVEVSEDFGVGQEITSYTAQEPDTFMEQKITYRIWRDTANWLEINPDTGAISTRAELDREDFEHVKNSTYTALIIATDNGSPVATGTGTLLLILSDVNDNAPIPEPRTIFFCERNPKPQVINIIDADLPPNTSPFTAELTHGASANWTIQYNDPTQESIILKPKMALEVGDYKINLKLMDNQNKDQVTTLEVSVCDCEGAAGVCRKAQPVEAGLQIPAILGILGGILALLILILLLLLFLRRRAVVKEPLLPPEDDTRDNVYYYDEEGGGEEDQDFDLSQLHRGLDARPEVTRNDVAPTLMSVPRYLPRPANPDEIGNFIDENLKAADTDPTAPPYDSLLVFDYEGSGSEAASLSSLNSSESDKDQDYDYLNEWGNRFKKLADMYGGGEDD
Description: (§1) Substrate trapping—Prior to lysis, T-47D and T-47D/Met cells were treated with 50 μM pervanadate for 20 minutes, whereas MDA-MB-231 cells were treated with 100 μM pervanadate for 20 minutes. Cells were rinsed with PBS and lysed in 1% NP-40 buffer (1% NP-40,150 mM NaCl, 20 mM HEPES pH7.5, 1 mM EDTA, 5 μg/ml aprotinin, 5 μg/ml leupeptin, 1 mM benzamidine). For trapping experiments in vitro, the lysis buffer also contained 5 mM iodoacetic acid to inhibit cellular PTPs irreversibly. After incubation on ice for 5 minutes, dithiothreitol was added to a final concentration of 10 mM to inactivate any unreacted iodoacetic acid. Insoluble material was removed by centrifugation. […] Lysates and fusion proteins were incubated at 4° C. for 2 hours and then washed extensively with 1% NP-40 buffer. Tyrosine phosphorylated proteins were immunoprecipitated using 0.1 mg T-47D cell lysate and a combination of 5 μl each of anti-phosphotyrosine antibodies PT-66 and 4G10. Lysate and antibodies were incubated at 4° C. for 2 hours and washed extensively with 1% NP-40 buffer.

Met, the HGF/SF receptor = biological target: T3, Met, the HGF/SF receptor (Homo sapiens (Human), UniProt P08581 25-1390, tyrosine phosphorylated (cells treated with pervanadate); sites not stated); assay: amylose pull-down from pervanadate-treated T-47D/Met lysate, anti-Met immunoblot
T3 construct: also called HGF-R; HGF/SF receptor Met
Description: as §1

B1: full length DEP-1(CS) (protein)
chain: AGGTPSPIPDPSVATVATGENGITQISSTAESFHKQNGTGTPQVETNTSEDGESSGANDSLRTPEQGSNGTDGASQKTPSSTGPSPVFDIKAVSISPTNVILTWKSNDTAASEYKYVVKHKMENEKTITVVHQPWCNITGLRPATSYVFSITPGIGNETWGDPRVIKVITEPIPVSDLRVALTGVRKAALSWSNGNGTASCRVLLESIGSHEELTQDSRLQVNISDLKPGVQYNINPYLLQSNKTKGDPLGTEGGLDASNTERSRAGSPTAPVHDESLVGPVDPSSGQQSRDTEVLLVGLEPGTRYNATVYSQAANGTEGQPQAIEFRTNAIQVFDVTAVNISATSLTLIWKVSDNESSSNYTYKIHVAGETDSSNLNVSEPRAVIPGLRSSTFYNITVCPVLGDIEGTPGFLQVHTPPVPVSDFRVTVVSTTEIGLAWSSHDAESFQMHITQEGAGNSRVEITTNQSIIIGGLFPGTKYCFEIVPKGPNGTEGASRTVCNRTVPSAVFDIHVVYVTTTEMWLDWKSPDGASEYVYHLVIESKHGSNHTSTYDKAITLQGLIPGTLYNITISPEVDHVWGDPNSTAQYTRPSNVSNIDVSTNTTAATLSWQNFDDASPTYSYCLLIEKAGNSSNATQVVTDIGITDATVTELIPGSSYTVEIFAQVGDGIKSLEPGRKSFCTDPASMASFDCEVVPKEPALVLKWTCPPGANAGFELEVSSGAWNNATHLESCSSENGTEYRTEVTYLNFSTSYNISITTVSCGKMAAPTRNTCTTGITDPPPPDGSPNITSVSHNSVKVKFSGFEASHGPIKAYAVILTTGEAGHPSADVLKYTYDDFKKGASDTYVTYLIRTEEKGRSQSLSEVLKYEIDVGNESTTLGYYNGKLEPLGSYRACVAGFTNITFHPQNKGLIDGAESYVSFSRYSDAVSLPQDPGVICGAVFGCIFGALVIVTVGGFIFWRKKRKDAKNNEVSFSQIKPKKSKLIRVENFEAYFKKQQADSNCGFAEEYEDLKLVGISQPKYAAELAENRGKNRYNNVLPYDISRVKLSVQTHSTDDYINANYMPGYHSKKDFIATQGPLPNTLKDFWRMVWEKNVYAIIMLTKCVEQGRTKCEEYWPSKQAQDYGDITVAMTSEIVLPEWTIRDFTVKNIQTSESHPLRQFHFTSWPDHGVPDTTDLLINFRYLVRDYMKQSPPESPILVHSSAGVGRTGTFIAIDRLIYQIENENTVDVYGIVYDLRMHRPLMVQTEDQYVFLNQCVLDIVRSQKDSKVDLIYQNTTAMTIYENLAPVTTFGKTNGYIA
[1]
  phosphorylation of Met (phospho-specific antibodies): no effect on phosphorylation of Met was observed with the expression of DEP-1(CS)
  phosphorylation of Tyr^1349 of Met (phospho-specific antibody): no change in the phosphorylation level of Tyr^1349 was observed in the presence of DEP-1(CS)

B2: full length wild type DEP-1 (protein)
chain: AGGTPSPIPDPSVATVATGENGITQISSTAESFHKQNGTGTPQVETNTSEDGESSGANDSLRTPEQGSNGTDGASQKTPSSTGPSPVFDIKAVSISPTNVILTWKSNDTAASEYKYVVKHKMENEKTITVVHQPWCNITGLRPATSYVFSITPGIGNETWGDPRVIKVITEPIPVSDLRVALTGVRKAALSWSNGNGTASCRVLLESIGSHEELTQDSRLQVNISDLKPGVQYNINPYLLQSNKTKGDPLGTEGGLDASNTERSRAGSPTAPVHDESLVGPVDPSSGQQSRDTEVLLVGLEPGTRYNATVYSQAANGTEGQPQAIEFRTNAIQVFDVTAVNISATSLTLIWKVSDNESSSNYTYKIHVAGETDSSNLNVSEPRAVIPGLRSSTFYNITVCPVLGDIEGTPGFLQVHTPPVPVSDFRVTVVSTTEIGLAWSSHDAESFQMHITQEGAGNSRVEITTNQSIIIGGLFPGTKYCFEIVPKGPNGTEGASRTVCNRTVPSAVFDIHVVYVTTTEMWLDWKSPDGASEYVYHLVIESKHGSNHTSTYDKAITLQGLIPGTLYNITISPEVDHVWGDPNSTAQYTRPSNVSNIDVSTNTTAATLSWQNFDDASPTYSYCLLIEKAGNSSNATQVVTDIGITDATVTELIPGSSYTVEIFAQVGDGIKSLEPGRKSFCTDPASMASFDCEVVPKEPALVLKWTCPPGANAGFELEVSSGAWNNATHLESCSSENGTEYRTEVTYLNFSTSYNISITTVSCGKMAAPTRNTCTTGITDPPPPDGSPNITSVSHNSVKVKFSGFEASHGPIKAYAVILTTGEAGHPSADVLKYTYDDFKKGASDTYVTYLIRTEEKGRSQSLSEVLKYEIDVGNESTTLGYYNGKLEPLGSYRACVAGFTNITFHPQNKGLIDGAESYVSFSRYSDAVSLPQDPGVICGAVFGCIFGALVIVTVGGFIFWRKKRKDAKNNEVSFSQIKPKKSKLIRVENFEAYFKKQQADSNCGFAEEYEDLKLVGISQPKYAAELAENRGKNRYNNVLPYDISRVKLSVQTHSTDDYINANYMPGYHSKKDFIATQGPLPNTLKDFWRMVWEKNVYAIIMLTKCVEQGRTKCEEYWPSKQAQDYGDITVAMTSEIVLPEWTIRDFTVKNIQTSESHPLRQFHFTSWPDHGVPDTTDLLINFRYLVRDYMKQSPPESPILVHCSAGVGRTGTFIAIDRLIYQIENENTVDVYGIVYDLRMHRPLMVQTEDQYVFLNQCVLDIVRSQKDSKVDLIYQNTTAMTIYENLAPVTTFGKTNGYIA
[1]
  phosphorylation of Tyr^1230, Tyr^1234 and Tyr^1235 of Met (phospho-specific antibodies): a gradual decrease in the level of phosphorylation of the activation loop tyrosine residues was observed with increasing expression of wild type DEP-1
  phosphorylation of Tyr^1349 of Met (phospho-specific antibody): Tyr^1349 was nearly completely dephosphorylated in the presence of low levels of DEP-1
  phosphorylation of Tyr^1365 of Met (phospho-specific antibody): Tyr^1365 was nearly completely dephosphorylated in the presence of low levels of DEP-1

B3: MBP.DEP-1(DA) (enzyme, not shown: large carriers; small tags and cut ends)
chain: RKKRKDAKNNEVSFSQIKPKKSKLIRVENFEAYFKKQQADSNCGFAEEYEDLKLVGISQPKYAAELAENRGKNRYNNVLPYDISRVKLSVQTHSTDDYINANYMPGYHSKKDFIATQGPLPNTLKDFWRMVWEKNVYAIIMLTKCVEQGRTKCEEYWPSKQAQDYGDITVAMTSEIVLPEWTIRDFTVKNIQTSESHPLRQFHFTSWPAHGVPDTTDLLINFRYLVRDYMKQSPPESPILVHCSAGVGRTGTFIAIDRLIYQIENENTVDVYGIVYDLRMHRPLMVQTEDQYVFLNQCVLDIVRSQKDSKVDLIYQNTTAMTIYENLAPVTTFGKTNGYIA
notes: also called DEP-1 substrate-trapping mutant (DA); DEP-1(DA) cytoplasmic domain fusion protein
E-cadherin
  binding result: no binding (tested: 1 µg fusion protein to 500 µg lysate)

B4: MBP.DEP-1 (enzyme, not shown: large carriers)
chain: RKKRKDAKNNEVSFSQIKPKKSKLIRVENFEAYFKKQQADSNCGFAEEYEDLKLVGISQPKYAAELAENRGKNRYNNVLPYDISRVKLSVQTHSTDDYINANYMPGYHSKKDFIATQGPLPNTLKDFWRMVWEKNVYAIIMLTKCVEQGRTKCEEYWPSKQAQDYGDITVAMTSEIVLPEWTIRDFTVKNIQTSESHPLRQFHFTSWPDHGVPDTTDLLINFRYLVRDYMKQSPPESPILVHCSAGVGRTGTFIAIDRLIYQIENENTVDVYGIVYDLRMHRPLMVQTEDQYVFLNQCVLDIVRSQKDSKVDLIYQNTTAMTIYENLAPVTTFGKTNGYIA
notes: also called wild type DEP-1 (MBP-DEP-1); wildtype DEP-1 fusion protein
Met, the HGF/SF receptor
  binding result: no binding (tested: 1 µg fusion protein to 500 µg lysate)
